Measurements taken from the Human Domainome abundance scans (Beltran et al. 2025).

B1: Histone-lysine N-methyltransferase 2A, residues 1148 to 1194; numbered along this chain, Q03164 (parent)
chain: KGRRSRRCGQCPGCQVPEDCGVCTNCLDKPKFGGRNIKKQCCKMRKC

Variants of: B1
Assay: abundance fitness (aPCA) (normalised: wild type 0, dead -1); higher = more abundant; growth selection in yeast, the domain comes from the species named
Settings: Homo sapiens

Abundance fitness of substitutions, site by site:
T24: F -0.412; S -0.256; W -0.392; P -0.091; A -0.143; M -0.149; N -0.521; Q -0.067; L -0.477; G -0.207; V -0.479; R -0.611; H -0.069; C -0.441; K -0.297; E 0.038; I -0.345; Y -0.238
E18: W -0.1; A -0.089; H -0.17; S -0.092; I -0.364; Y -0.264; K -0.002; L -0.213; R -0.049; Q -0.177; C -0.485; T -0.164; G -0.469; M -0.22; N -0.161; D -0.182; P -0.495; V -0.093
C14: I -0.663; V -0.7; Y -0.554; M -0.713; N -0.288; F -0.913; T -0.728; Q -0.183; L -0.916; W -0.727; A -0.738; G -0.559; D -0.779; P -0.765; R -0.784; S -0.49
C26: G -0.974; E -0.81; S -1.02; Y -0.851; D -0.76; H -0.988; W -0.778; R -0.602; F -0.991; V -1.04; P -0.75; K -0.785; A -0.914; T -0.959; L -0.902; M -0.876
V22: N -0.28; C -0.311; Y -0.053; K -0.079; W -0.246; L -0.166; G -0.319; S 0.061; M -0.385; P -0.769; R -0.021; H -0.046; Q 0.079; D -0.322; F -0.009; E -0.158
N25: G -0.342; V -0.02; L -0.536; M -0.084; H -0.374; A -0.078; T -0.325; Y -0.148; D -0.233; F -0.377; Q -0.481; W -0.107; I 0.121; R -0.599; S 0.024; K -0.633
D28: K -0.752; Y -0.657; Q -0.509; R -0.618; N -0.326; W -1.05; M -0.761; H -1; E -0.502; C -0.868; G -0.461; A -0.475; L -0.921; P -0.937; S -0.626; F -0.856; T -1.09; I -0.628; V -0.374
P17: V -0.057; F -0.123; Y -0.485; W -0.215; G -0.082; E 0.074; A -0.058; Q -0.159; K 0.095; D -0.615; S 0.026; L -0.06; I -0.358; M -0.241; T 0.161; N -0.313; C -0.367
P12: G -0.872; H -0.579; I -0.31; K -0.75; Q 0.016; R -0.398; N -0.465; C -0.758; M -0.081; E -0.439; Y -0.063; S -0.676; T -0.5; L -0.106; F -0.63; V -0.712; W -0.723
G21: Y -0.769; Q -0.918; P -0.857; V -0.7; W -0.88; M -0.278; L -0.626; D -0.872; N -0.767; R -0.416; T -0.894; I -0.995; C -0.805; F -0.684; S -0.542; H -0.375; E -0.677
L27: E -0.129; C -0.569; H -0.34; G -0.583; S -0.554; W -0.554; Y -0.334; K -0.293; R -0.35; A -0.257; V -0.539; D -0.419; N -0.518; Q -0.064; P -0.799; F -0.353
V16: A -0.278; W -0.285; L 0.205; Y -0.178; C -0.468; D -0.783; R 0.196; H -0.3; M 0.159; T 0.173; S -0.168; Q 0.223; P -0.414; N 0.146; G -0.705; E -0.522; I -0.066; K 0.103
Q10: Y -0.69
C20: A -0.961; D -0.782; H -0.97; P -0.947; N -0.898; W -0.95; T -0.753; M -0.925; K -0.594; R -0.654; Y -0.994; S -0.832; E -0.736; Q -0.866; F -1.03; I -0.895
P30: E 0.109; H -0.26; Q -0.381; F -0.705; I -0.256; G -0.213; A -0.187; D -0.77; L -0.361; K -0.669; N 0.057
C11: H -0.495; M -0.784; G -0.643; I -0.913; S -0.55; F -0.719; E -0.799; P -0.693; Q -0.915; K -0.964; A -0.696; Y -0.827; V -0.371; R -0.81; L -0.967; T -0.519; W -0.674
C23: V -0.814; N -0.766; E -0.543; Y -0.987; I -0.505; T -0.641; H -1.07; F -1; D -0.516; P -0.736; G -0.648; K -1; W -1.03; R -0.884; Q -0.623; A -0.675
Q15: M 0.058; P -0.838; R -0.19; Y -0.727; L -0.049; N -0.392; V -0.25; A -0.112; D -0.463; F -0.54; H -0.355; T -0.244; G -0.384; E -0.103; W -0.468; C -0.37; I -0.185; S -0.313
K29: P -0.58; L -0.671; M -0.408; F -0.648; Q -0.427; W -0.686; S -0.416; E -0.519; R -0.368; Y -0.564; T -0.397; N -0.55; V -0.51; D -0.411; H -0.618; G -0.463
G13: D -0.313; Q -0.068; L -0.445; N -0.266; F -0.522; R -0.719; A -0.219; Y -0.393; E -0.353; T -0.455; M -0.381; I -0.606; W -0.708; K -0.678; C -0.315; P 0.152; H -0.884
D19: L -0.878; Q -1.05; H -0.677; G -0.96; E -0.962; N -0.624; I -1.24; V -0.901; Y -0.859; W -0.861; K -0.898; C -0.977; P -0.935; A -0.797; T -0.865; F -1.02; R -0.775; M -0.339
